Test results from patent publication US20140179900A1.

What was measured:
[1] = biological target: monoclonal antibody 12G6H5 (“Frida”); assay: inhibition ELISA FIG. 18c, high peptide, 2.5 ng Frida, coat p4073
[2] = biological target: monoclonal antibody 12G6H5 (“Frida”); assay: inhibition ELISA FIG. 18c, low peptide, 2.5 ng Frida, coat p4073
[3] = biological target: monoclonal antibody 12G6H5 (“Frida”); assay: inhibition ELISA FIG. 18a, high peptide, 2.5 ng Frida, coat p4073
[4] = biological target: monoclonal antibody 12G6H5 (“Frida”); assay: inhibition ELISA FIG. 18a, low peptide, 2.5 ng Frida, coat p4073
[5] = biological target: monoclonal antibody 12G6H5 (“Frida”); assay: inhibition ELISA FIG. 10b, 2 µg peptide, 2.5 ng Frida, coat p4073
[6] = biological target: monoclonal antibody 12G6H5 (“Frida”); assay: inhibition ELISA FIG. 10b, 20 µg peptide, 2.5 ng Frida, coat p4073
[7] = biological target: monoclonal antibody 12G6H5 (“Frida”); assay: inhibition ELISA FIG. 10a, 2 µg peptide, 2.5 ng Frida, coat p4073
[8] = biological target: monoclonal antibody 12G6H5 (“Frida”); assay: inhibition ELISA FIG. 10a, 20 µg peptide, 2.5 ng Frida, coat p4073

ELISA signal with competitor [1] | ELISA signal with competitor [2] | ELISA signal with competitor [3] | ELISA signal with competitor [4] | Binder | other results
1.69 | 1.63 | – | – | CAAFAAHLLADFLQAAA [p4436 C-…] | –
0.101 | 0.942 | 0.093 | 0.712 | FGFPEHLLVDFLQSLSC [p1208 …-C] | –
– | – | 0.179 | 1.45 | CFGFPAHVFIDWLQSLN [p4474 C-…] | –
– | – | 1.42 | 2 | CFGFPAHVSFDWLQSLS [p4476 C-…] | –
0.096 | 0.635 | – | – | CFGFPSHIIIDWLQSLS [p4432 C-…] | –
1.46 | 1.74 | – | – | CAAFPAHLLADAAQALA [p4434 C-…] | –
– | – | 0.103 | 0.521 | CDFGFPAHVFIDWLQSLS [p4480 C-…] | –
– | – | 1.59 | 2.17 | CGFKPAHVFIDWLQSLS [p4479 C-…] | –
– | – | – | – | CFGFPSHLIIDWLQSLS [p4325 C-…] | ELISA signal with competitor [5]: 0.42; ELISA signal with competitor [6]: 0.1
– | – | 0.116 | 0.808 | CFGFPEHVFIDWLQSLS [p4477 C-…] | –
0.672 | 1.11 | – | – | CFGFPSHLIIEWLQSLS [p4433 C-…] | –
– | – | – | – | CFGFPAHVFIDWLQSLS [p4361 C-…] | ELISA signal with competitor [7]: 0.82; ELISA signal with competitor [8]: 0.16
1.67 | 1.84 | – | – | CAAAPAHLLVDAAQAAA [p4437 C-…] | –
1.97 | 1.28 | – | – | CAAFPAHAAADFLQALA [p4435 C-…] | –
– | – | 1.21 | 2.23 | CFKPAHVFIDWLQSLS [p4478 C-…] | –
– | – | 0.156 | 0.551 | CFGFPQHLFTDWLQSLS [p4481 C-…] | –
– | – | – | – | CFGFPAHVYIDWLQSLS [p4362 C-…] | ELISA signal with competitor [7]: 0.75; ELISA signal with competitor [8]: 0.15
0.088 | 0.554 | 0.094 | 0.537 | CFGFPEHLLVDFLQSLS [p4073 C-…, original CETP epitope] | ELISA signal with competitor [7]: 0.44; ELISA signal with competitor [5]: 0.64; ELISA signal with competitor [8]: 0.1; ELISA signal with competitor [6]: 0.15
– | – | 1.43 | 2.21 | CFGFPAHFSIDWLQSLS [p4475 C-…] | –
